Results as given in US20250250357A1 (NANJING ZAIMING PHARMACEUTICAL, published 2025).

B1: S009-F8-5.15 (antibody, human IgG1, kappa, V domains shown)
VH: QVQLQQPGTELVKPGASVKLSCKASGYTFTSYWMHWVKQRPGQGLEWIGHSNPSNGGTNYNEKFKSKATLTVDKSSSTAYMQLSSLTSEDSAVYYCARWVRGSNYEYFDVWGTGTTVTVSS
VL: DIVMTQSQKFMSTTVGDRVSIICKASQNVGSAVAWCQQKPGQSPKLLIYSASNRYTGVPDRFTGSGSGTDFTLTISNMQSEDLADYFCQQYSSYPLTFAGGTKLEIKR
B2: S009-F8-8.22 (antibody, human IgG1, kappa, V domains shown)
VH: EVQLQQSGPELVKPGASVKMSCKASGYTFTDYIIHWVKQSHGKSLEWIAYIFPNNGGTGYNQKFRGKATLTVNKSSSTAYMELRSLTSEDSAVYYCARWRLRQYFDVWGTGTTVTVSS
VL: DIVMTQSQKFMSTIVGDRVSITCKASQNVGTAVAWYQQKPGQSPKLLIYSASNRYTGVPDRFTGSGSGTDFTLTISNMQSEDLADYFCQQYSSYPLTFGGGTKLEIKR
B3: S009-F8-4.5 (antibody, human IgG1, kappa, V domains shown)
VH: QVQLQQPGAELVKPGASVKLSCKASGYTFTIYWMHWVKQRPGQGLEWIGMIHPNSGNTNYNEKFKSKATLTVDKSSSTAYMQLSSLTSEDSAVYYCSLIHWYFDVWGTGTTVTVSS
VL: QIVLTQSPAIMSASPGEKVTMTCSASSSVSYMYWYQQKPGSSPRLLIYDTSNLASGVPVRFSGSGSGTSYSLTISRMEAEDAATYYCQQWSSYPLTFGAGTKLELKR
B4: S009-F8-9.16 (antibody, human IgG1, kappa, V domains shown)
VH: EVHLQQSGPVLVKPGASVKMSCKASGYTFTDYFMNWVKQSHGKSLEWIGVINPHNGYVNYNQKFQGRATLTVDKSSSTVYMELNSLTSEDSAVYHCARSAESAWFAYWGQRTLVTVSA
VL: DVLMTQTPLSLPVSLGDQVSISCRSSQSIVHVKGNTYLEWYLQKPGQSPELLIYKVSNRFSGVPDRFSGGGSGTDFTLKISRVEPEDLGVYYCFQGSHLPYTFGGGTKLEIKR
B5: S009-F8-12.13 (antibody, human IgG1, kappa, V domains shown)
VH: QVQLQQPGAELVKPGASVKLSCKASGYTFTSYWMHWVKQRPGQGLEWIGMIHPNSGSTNYNEKFKSKATLTVDKSSSTAYMQLSSLTSEDSAVYYCARRTPIITLVGHWYFDVWGTGTTVTVSS
VL: DIVMTQSHKFMSTSVGDRVSITCKASQDVGTAVAWYQQKPGQSPKLLIYWASTRHTGVPDRFTGSGSGTDFTLTISNVQSEDLADYFCQQYSSYPLTFGAGTKLELKR
B6: Tab106 (YP218, hIgG1) (antibody, V domains shown)
VH: QQQLEESGGGLVKPEGSLTLTCKASGFDLGFYFYACWVRQAPGKGLEWIACIYTAGSGSTYYASWAKGRFTISKASSTTVTLQMTSLAAADTATYFCARSTANTRSTYYLNLWGPGTLVTVSS
VL: DVVMTQTPASVSEPVGGTVTIKCQASQRISSYLSWYQQKPGQRPKLLIFGASTLASGVPSRFKGSGSGTEYTLTISDLECADAATYYCQSYAYFDSNNWHAFGGGTEVVVRT
notes: also called YP218 human IgG1 antibody

Tests used:
[1] = target: T1, human MSLN-R1-his protein (human, UniProt Q13421 296-390); assay: ELISA on coated MSLN-R1; antibody 0.0001 nM
T1 construct: Region 1 of human mesothelin, made in HEK293E cells, His-tagged; also called human MSLN-R1 protein; hMSLN-R1-his; not shown: His tag
T1 chain: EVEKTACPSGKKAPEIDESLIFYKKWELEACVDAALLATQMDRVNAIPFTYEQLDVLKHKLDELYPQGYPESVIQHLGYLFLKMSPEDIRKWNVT

[2] = target: T2, human MSLN-R3-his protein (human, UniProt Q13421 487-598); assay: ELISA on coated MSLN-R3; antibody 0.0001 nM
T2 construct: Region 3 of human mesothelin, made in HEK293E cells, His-tagged; also called human MSLN-R3 protein; hMSLN-R3-his; not shown: His tag

[3] = target: T2, human MSLN-R3-his protein; assay: ELISA on coated MSLN-R3; antibody 1 nM
[4] = target: T1, human MSLN-R1-his protein; assay: ELISA on coated MSLN-R1; antibody 10 nM
[5] = target: T2, human MSLN-R3-his protein; assay: ELISA on coated MSLN-R3; antibody 0.001 nM
Description: (§1) The plate was sealed with a plastic film and incubated at 4° C. overnight. The next day, the plate was washed twice with PBST, and a blocking buffer [PBS+2% (w/w) BSA] was added for blocking at room temperature for 2 h. The blocking buffer was discarded, and a chimeric antibody or negative control antibody serially diluted from 100 nM was added at 50 μL/well. After incubation at 37° C. for 2 h, the plate was washed 3 times with PBST. […] After incubation at 37° C. for 2 h, the plate was washed 5 times with PBST. A TMB substrate was added at 50 μL/well for incubation at room temperature for 5-10 min, and then a stop solution (1.0 N HCl) was added at 50 μL/well.

[6] = target: T3, human MSLN-R2-his protein (human, UniProt Q13421 391-486); assay: ELISA on coated MSLN-R2; antibody 0.0001 nM
T3 construct: Region 2 of human mesothelin, made in HEK293E cells, His-tagged; also called human MSLN-R2 protein; hMSLN-R2-his; not shown: His tag

[7] = target: T3, human MSLN-R2-his protein; assay: ELISA on coated MSLN-R2; antibody 1 nM
[8] = target: T2, human MSLN-R3-his protein; assay: ELISA on coated MSLN-R3; antibody 100 nM
[9] = target: T3, human MSLN-R2-his protein; assay: ELISA on coated MSLN-R2; antibody 0.1 nM
Description: as §1

[10] = target: T1, human MSLN-R1-his protein; assay: ELISA on coated MSLN-R1; antibody 100 nM
Description: as §1

[11] = target: T3, human MSLN-R2-his protein; assay: ELISA on coated MSLN-R2; antibody 100 nM
Description: as §1

[12] = target: T2, human MSLN-R3-his protein; assay: ELISA on coated MSLN-R3; antibody 0.01 nM
Description: as §1

[13] = target: T2, human MSLN-R3-his protein; assay: ELISA on coated MSLN-R3; antibody 10 nM
Description: as §1

[14] = target: T3, human MSLN-R2-his protein; assay: ELISA on coated MSLN-R2; antibody 0.001 nM
[15] = target: T3, human MSLN-R2-his protein; assay: ELISA on coated MSLN-R2; no antibody (blank)
[16] = target: T1, human MSLN-R1-his protein; assay: ELISA on coated MSLN-R1; antibody 1 nM
Description: as §1

[17] = target: T2, human MSLN-R3-his protein; assay: ELISA on coated MSLN-R3; no antibody (blank)
[18] = target: T3, human MSLN-R2-his protein; assay: ELISA on coated MSLN-R2; antibody 0.01 nM
Description: as §1

[19] = target: T2, human MSLN-R3-his protein; assay: ELISA on coated MSLN-R3; antibody 0.1 nM
Description: as §1

[20] = target: T1, human MSLN-R1-his protein; assay: ELISA on coated MSLN-R1; no antibody (blank)
[21] = target: T3, human MSLN-R2-his protein; assay: ELISA on coated MSLN-R2; antibody 10 nM
[22] = target: T1, human MSLN-R1-his protein; assay: ELISA on coated MSLN-R1; antibody 0.01 nM
Description: as §1

[23] = target: T1, human MSLN-R1-his protein; assay: ELISA on coated MSLN-R1; antibody 0.1 nM
[24] = target: T1, human MSLN-R1-his protein; assay: ELISA on coated MSLN-R1; antibody 0.001 nM
Description: as §1

T3 sequence (Q13421 other isoform, or with tags, fused parts or gaps): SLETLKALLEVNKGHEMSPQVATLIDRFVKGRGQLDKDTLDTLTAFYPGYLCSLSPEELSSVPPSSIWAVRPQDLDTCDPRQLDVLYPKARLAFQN
T2 sequence (Q13421 495-606): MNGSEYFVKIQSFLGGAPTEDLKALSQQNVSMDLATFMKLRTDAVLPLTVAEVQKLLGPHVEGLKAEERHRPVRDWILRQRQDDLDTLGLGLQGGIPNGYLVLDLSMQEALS

Binder | OD450 [1] | OD450 [2] | OD450 [3] | OD450 [4] | OD450 [5] | OD450 [6] | OD450 [7] | OD450 [8] | OD450 [9] | OD450 [10] | OD450 [11] | OD450 [12] | OD450 [13] | OD450 [14] | OD450 [15] | OD450 [16] | OD450 [17] | OD450 [18] | OD450 [19] | OD450 [21] | also measured
B1 | 0.04 OD450 | 0.04 OD450 | 0.04 OD450 | 1.65 OD450 | 0.05 OD450 | 0.05 OD450 | 0.04 OD450 | 0.06 OD450 | 0.04 OD450 | 2.29 OD450 | 0.05 OD450 | 0.04 OD450 | 0.05 OD450 | 0.05 OD450 | 0.05 OD450 | 0.68 OD450 | 0.05 OD450 | 0.04 OD450 | 0.04 OD450 | 0.05 OD450 | OD450 [20]: 0.05 OD450; OD450 [22]: 0.05 OD450; OD450 [23]: 0.12 OD450; OD450 [24]: 0.05 OD450
B2 | 0.08 OD450 | 0.04 OD450 | 0.05 OD450 | 2.63 OD450 | 0.04 OD450 | 0.05 OD450 | 0.04 OD450 | 0.15 OD450 | 0.04 OD450 | 2.63 OD450 | 0.09 OD450 | 0.04 OD450 | 0.08 OD450 | 0.05 OD450 | 0.04 OD450 | 2.46 OD450 | 0.04 OD450 | 0.04 OD450 | 0.04 OD450 | 0.05 OD450 | OD450 [20]: 0.06 OD450; OD450 [22]: 0.61 OD450; OD450 [23]: 1.78 OD450; OD450 [24]: 0.16 OD450
B3 | 0.05 OD450 | 0.05 OD450 | 0.05 OD450 | 0.09 OD450 | 0.05 OD450 | 0.05 OD450 | 0.05 OD450 | 0.12 OD450 | 0.05 OD450 | 0.24 OD450 | 0.08 OD450 | 0.04 OD450 | 0.07 OD450 | 0.05 OD450 | 0.05 OD450 | 0.05 OD450 | 0.06 OD450 | 0.05 OD450 | 0.05 OD450 | 0.06 OD450 | OD450 [20]: 0.05 OD450; OD450 [22]: 0.05 OD450; OD450 [23]: 0.05 OD450; OD450 [24]: 0.05 OD450
B4 | 0.04 OD450 | 0.06 OD450 | 2.23 OD450 | 0.05 OD450 | 0.11 OD450 | 0.04 OD450 | 0.04 OD450 | 2.4 OD450 | 0.04 OD450 | 0.09 OD450 | 0.07 OD450 | 0.5 OD450 | 2.03 OD450 | 0.04 OD450 | 0.05 OD450 | 0.04 OD450 | 0.03 OD450 | 0.04 OD450 | 1.38 OD450 | 0.05 OD450 | OD450 [20]: 0.04 OD450; OD450 [22]: 0.04 OD450; OD450 [23]: 0.04 OD450; OD450 [24]: 0.04 OD450
B5 | 0.32 OD450 | 0.04 OD450 | 0.06 OD450 | 2.16 OD450 | 0.05 OD450 | 0.04 OD450 | 0.05 OD450 | 0.2 OD450 | 0.05 OD450 | 2.17 OD450 | 0.15 OD450 | 0.04 OD450 | 0.1 OD450 | 0.04 OD450 | 0.05 OD450 | 2.06 OD450 | 0.05 OD450 | 0.05 OD450 | 0.05 OD450 | 0.07 OD450 | OD450 [20]: 0.05 OD450; OD450 [22]: 1.18 OD450; OD450 [23]: 1.97 OD450; OD450 [24]: 0.52 OD450
B6 |  | 0.09 OD450 | 1.99 OD450 |  | 0.14 OD450 | 0.04 OD450 | 0.04 OD450 | 2.28 OD450 | 0.04 OD450 |  | 0.22 OD450 | 0.52 OD450 | 1.81 OD450 | 0.04 OD450 | 0.04 OD450 |  | 0.04 OD450 | 0.04 OD450 | 1.38 OD450 | 0.06 OD450 | 
